Biological target: T1, endogenous VDAC2 (voltage-dependent anion-selective channel protein 2) (human (endogenous in HONE1 and SUNE1)), P45880
T1 chain: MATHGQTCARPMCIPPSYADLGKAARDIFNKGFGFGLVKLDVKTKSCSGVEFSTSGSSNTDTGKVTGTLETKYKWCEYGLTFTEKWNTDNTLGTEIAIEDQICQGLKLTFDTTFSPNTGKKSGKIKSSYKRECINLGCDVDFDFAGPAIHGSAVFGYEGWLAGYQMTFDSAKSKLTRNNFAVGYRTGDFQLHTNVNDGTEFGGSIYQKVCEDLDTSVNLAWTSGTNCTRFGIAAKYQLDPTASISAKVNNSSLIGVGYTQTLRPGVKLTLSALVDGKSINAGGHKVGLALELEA
Assay: cross-linking; NPC cells in PBS with 5 mM DSS, 37 °C, 30 min, quenched with 20 mM Tris-HCl; Western blot; 24 h after IR; WT and TRIM21-KO cells
Details: remark: other sources report otherwise

stoichiometry N: > 3
B1: endogenous VDAC2 (voltage-dependent anion-selective channel protein 2), P45880 1-294 (natural protein)
chain: T1 chain
